Tests used:
Pgp3 = target: T1, Pgp3 (Campylobacter jejuni, UniProt A0AAD2UT50); assay: LC/MS turnover assay; format: biochemical; conditions: D,D-endopeptidase; 50 mM Tris pH 7.5, 23 °C
T1 construct: gene A8118_01115; residues 21-273 (Glu21 to Gln273 in Methods, Asn273 in Results) without N-terminal 20 residues, of 274 aa; expressed in E. coli Rosetta2 (DE3); Zn enzyme

[1] = target: Pgp3 H247A mutant, residues 21-273 (C. jejuni (strain ATCC 33560)); assay: crystal structure; H247A protein (10 mg/mL, 20 mM Tris-HCl pH 8.0, 200 mM NaCl) mixed with peptide in a 1:10 molar ratio, 277 K for 1 h; crystals grown at 296 K in 1.8 M ammonium citrate tribasic pH 7.0

T1 sequence (A0AAD2UT50 entry or part of it): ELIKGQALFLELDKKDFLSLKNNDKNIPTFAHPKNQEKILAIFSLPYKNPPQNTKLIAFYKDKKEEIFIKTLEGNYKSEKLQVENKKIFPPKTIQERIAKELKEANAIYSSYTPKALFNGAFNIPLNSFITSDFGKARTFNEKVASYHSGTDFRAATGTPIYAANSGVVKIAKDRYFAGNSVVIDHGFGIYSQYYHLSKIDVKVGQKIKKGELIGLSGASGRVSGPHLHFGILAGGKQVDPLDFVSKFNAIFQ

| Compound | LC/MS turnover assay (Pgp3) | stoichiometry N [1] |
| --- | --- | --- |
| CO[C@@H]1O[C@H](CO)[C@@H](O)[C@H](O[C@H](C)C(=O)N[C@@H](C)C(=O)N[C@H](CCC(=O)N[C@@H](CCC[C@@H](NC(=O)[C@@H](C)NC(=O)[C@H](CCC[C@@H](N)C(=O)O)NC(=O)CC[C@@H](NC(=O)[C@H](C)NC(=O)[C@@H](C)O[C@H]2[C@H](O)[C@@H](CO)O[C@@H](OC)[C@@H]2NC(C)=O)C(=O)O)C(=O)O)C(=O)O)C(=O)O)[C@H]1NC(C)=O [compound 2, crosslinked muramyl tetra-tri peptide] | Pgp3 exhibited both D,D-carboxypeptidase and D,D-endopeptidase activities based on LC/MS analysis |  |
| crosslinked muramyl tetra-tri peptide 2, NAM-L-Ala1-γ-D-Glu2-mDAP3-D-Ala4-mDAP3-γ-D-Glu2-Ala1-NAM |  | 1 |
| pentapeptide 1, Ac-L-Ala1-γ-D-Glu2-mDAP3-D-Ala4-D-Ala5 |  | 1 |

From publication PMC6978369, “Peptidoglycan reshaping by a noncanonical peptidase for helical cell shape in Campylobacter jejuni” (Nature Communications, 2020)
